Results published in the supplement of paper PMC5949888.

The sequences below were run on Saccharomyces cerevisiae PS128 hsf1 delta, HSF1(1-493) fusion (assay: growth estimate (transactivation domain function in HSF1 fusion, heat-shock survival) (a.u. (slope of normalised read count over time)); higher = stronger growth at 37°C, i.e. more transactivation activity). Conditions: library: design library.
Summary of the method: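 Transactivation-domain oligos were designed and fused to a truncated yeast HSF1 (amino acids 1–493), then expressed in a yeast strain lacking hsf1. Replica plating onto –trp 5-FOA plates was followed by incubation at 30°C or 37°C for 0, 2, 4, 6 and 8 days. Inserts were amplified by PCR and sequenced on an Illumina MiSeq as six barcoded replicates from a single experiment. The growth estimate is the slope of a robust linear fit over time of read counts normalised to sample totals and to starting count.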

Row | Sequence | growth estimate
1 | AADDIWEELLSEDL | 2.1
2 | ADDDEFSLWDSML | 1.96
3 | ADLYSILWSDVY | -0.203
4 | AELSWIIELLEKDG | -0.248
5 | AFDLDMLGDFDLDMLG | 1.88
6 | AFDYDFLFGNDFA | 10.5
7 | AFNDLLDLDFILSN | 0.948
8 | AFPDTQDDFLKWWRSEEAQ | -0.0486
9 | ALDESWDYIFETTE | 0.813
10 | ALSSHGFSVDTSALLDLFSP | 0.065
11 | AMDDVYNYLFDD | 2.28
12 | AQNGEIAQLWDFN | -0.205
13 | DADESWDYIFETTE | -0.164
14 | DADLDMLGDFDLDMLG | 0.604
15 | DALSWIIELLEKDG | < -0.25
16 | DEASWIIELLEKDG | -0.123
17 | DELAWIIELLEKDG | 0.883
18 | DELGWIIELLEKDG | -0.244
19 | DELKWIIELLEKDG | -0.0445
20 | DELPWIIELLEKDG | -0.193
21 | DELRWIIELLEKDG | 0.0232
22 | DELSAIIELLEKDG | < -0.25
23 | DELSGIIELLEKDG | -0.238
24 | DELSKIIELLEKDG | < -0.25

Row | Sequence | growth estimate
25 | DELSPIIELLEKDG | -0.237
26 | DELSRIIELLEKDG | < -0.25
27 | DELSWAIELLEKDG | < -0.25
28 | DELSWGIELLEKDG | < -0.25
29 | DELSWIAELLEKDG | 0.851
30 | DELSWIGELLEKDG | -0.125
31 | DELSWIIALLEKDG | -0.104
32 | DELSWIIEALEKDG | 0.0037
33 | DELSWIIEGLEKDG | < -0.25
34 | DELSWIIEKLEKDG | < -0.25
35 | DELSWIIELLAKDG | -0.221
36 | DELSWIIELLEADG | 1.64
37 | DELSWIIELLEGDG | 2.77
38 | DELSWIIELLEKAG | < -0.25
39 | DELSWIIELLEKDA | 2.02
40 | DELSWIIELLEKDG | 1.7
41 | DELSWIIELLEKDK | 0.564
42 | DELSWIIELLEKDP | 3.41
43 | DELSWIIELLEKDR | 0.276
44 | DELSWIIELLEKGG | 0.213
45 | DELSWIIELLEKKG | < -0.25
46 | DELSWIIELLEKPG | 0.0373
47 | DELSWIIELLEKRG | < -0.25
48 | DELSWIIELLEPDG | 7.58

Row | Sequence | growth estimate
49 | DELSWIIELLERDG | 1.05
50 | DELSWIIELLGKDG | -0.173
51 | DELSWIIELLKKDG | -0.239
52 | DELSWIIELLPKDG | -0.225
53 | DELSWIIELLRKDG | < -0.25
54 | DELSWIIELPEKDG | -0.237
55 | DELSWIIELREKDG | -0.239
56 | DELSWIIERLEKDG | < -0.25
57 | DELSWIIGLLEKDG | -0.0196
58 | DELSWIIKLLEKDG | -0.233
59 | DELSWIIRLLEKDG | < -0.25
60 | DELSWIKELLEKDG | 0.278
61 | DELSWIPELLEKDG | -0.091
62 | DELSWIRELLEKDG | 1.03
63 | DELSWKIELLEKDG | < -0.25
64 | DELSWPIELLEKDG | 0.046
65 | DELSWRIELLEKDG | -0.216
66 | DEPSWIIELLEKDG | -0.161
67 | DERSWIIELLEKDG | < -0.25
68 | DFALDMLGDFDLDMLG | 3.21
69 | DFDADMLGDFDLDMLG | 6.93
70 | DFDGDMLGDFDLDMLG | 1.92
71 | DFDKDMLGDFDLDMLG | 0.964
72 | DFDLAMLGDFDLDMLG | 9.96

Row | Sequence | growth estimate
73 | DFDLDALGDFDLDMLG | 5.01
74 | DFDLDGLGDFDLDMLG | 2.75
75 | DFDLDKLGDFDLDMLG | 1.4
76 | DFDLDMAGDFDLDMLG | 11.3
77 | DFDLDMGGDFDLDMLG | 8.13
78 | DFDLDMKGDFDLDMLG | 0.067
79 | DFDLDMLADFDLDMLG | 0.343
80 | DFDLDMLGAFDLDMLG | 5.97
81 | DFDLDMLGDADLDMLG | 5.13
82 | DFDLDMLGDFDADMLG | 21.1
83 | DFDLDMLGDFDGDMLG | 4.69
84 | DFDLDMLGDFDKDMLG | 0.54
85 | DFDLDMLGDFDLAMLG | -0.0527
86 | DFDLDMLGDFDLDALG | 0.195
87 | DFDLDMLGDFDLDGLG | 2.79
88 | DFDLDMLGDFDLDKLG | -0.158
89 | DFDLDMLGDFDLDMAG | 30.2
90 | DFDLDMLGDFDLDMGG | 16.5
91 | DFDLDMLGDFDLDMKG | 3.28
92 | DFDLDMLGDFDLDMLA | 1.83
93 | DFDLDMLGDFDLDMLG | 7.72
94 | DFDLDMLGDFDLDMLK | 1.65
95 | DFDLDMLGDFDLDMLP | 22.2
96 | DFDLDMLGDFDLDMLR | 6.97
